# Reference: paper PMC5138130 (Journal of molecular biology, 2016)
# Numbering of substitutions follows the chain as printed. Numbers in names are those of the source. Where “and” joins values, the source holds several entries; their conditions need not be identical. Equal entries are not always repeated.
# B1: Bni5(314–448) C375 labeled with AF647 (domain or fragment)
# chain: TRRPTNPFRVISVSSNSNSRNGSRKSSLNKYDSPVSSPITSASELGSIAKLEKRHDYLSMKCIKLQKEIDYLNKMNAQGSLSMEDGKRLHRAVVKLQEYLDKKTKEKYEVGVLLSRHLRKQIDRGENGQFWIGTK
# modifications: AF647 (Alexa Fluor 647 maleimide) on C375
# B2: Cdc11 (wild type), terminal subunit of the septin hetero-octamer (natural protein, S. cerevisiae, UniProt P32458 1-415, looked up)
# chain: MSGIIDASSALRKRKHLKRGITFTVMIVGQSGSGRSTFINTLCGQQVVDTSTTILLPTDTSTEIDLQLREETVELEDDEGVKIQLNIIDTPGFGDSLDNSPSFEIISDYIRHQYDEILLEESRVRRNPRFKDGRVHCCLYLINPTGHGLKEIDVEFIRQLGSLVNIIPVISKSDSLTRDELKLNKKLIMEDIDRWNLPIYNFPFDEDEISDEDYETNMYLRTLLPFAIIGSNEVYEMGGDVGTIRGRKYPWGILDVEDSSISDFVILRNALLISHLHDLKNYTHEILYERYRTEALSGESVAAESIRPNLTKLNGSSSSSTTTRRNTNPFKQSNNINNDVLNPASDMHGQSTGENNETYMTREEQIRLEEERLKAFEERVQQELLLKRQELLQREKELREIEARLEKEAKIKQEE
# B3: Wild-type Cdc11-capped septin hetero-octamers (Cdc11-Cdc12-Cdc3-Cdc10-Cdc10-Cdc3-Cdc12-Cdc11) used for EM (complex, S. cerevisiae)
# chain 1: B2 chain
# chain 2: MSAATATAAPVPPPVGISNLPNQRYKIVNEEGGTFTVMLCGESGLGKTTFINTLFQTVLKRADGQQHRQEPIRKTVEIDITRALLEEKHFELRVNVIDTPGFGDNVNNNKAWQPLVDFIDDQHDSYMRQEQQPYRTKKFDLRVHAVLYFIRPTGHGLKPIDIETMKRLSTRANLIPVIAKADTLTAQELQQFKSRIRQVIEAQEIRIFTPPLDADSKEDAKSGSNPDSAAVEHARQLIEAMPFAIVGSEKKFDNGQGTQVVARKYPWGLVEIENDSHCDFRKLRALLLRTYLLDLISTTQEMHYETYRRLRLEGHENTGEGNEDFTLPAIAPARKLSHNPRYKEEENALKKYFTDQVKAEEQRFRQWEQNIVNERIRLNGDLEEIQGKVKKLEEQVKSLQVKKSHLK
# chain 3: MSLKEEQVSIKQDPEQEERQHDQFNDVQIKQESQDHDGVDSQYTNGTQNDDSERFEAAESDVKVEPGLGMGITSSQSEKGQVLPDQPEIKFIRRQINGYVGFANLPKQWHRRSIKNGFSFNLLCVGPDGIGKTTLMKTLFNNDDIEANLVKDYEEELANDQEEEEGQGEGHENQSQEQRHKVKIKSYESVIEENGVKLNLNVIDTEGFGDFLNNDQKSWDPIIKEIDSRFDQYLDAENKINRHSINDKRIHACLYFIEPTGHYLKPLDLKFMQSVYEKCNLIPVIAKSDILTDEEILSFKKTIMNQLIQSNIELFKPPIYSNDDAENSHLSERLFSSLPYAVIGSNDIVENYSGNQVRGRSYPWGVIEVDNDNHSDFNLLKNLLIKQFMEELKERTSKILYENYRSSKLAKLGIKQDNSVFKEFDPISKQQEEKTLHEAKLAKLEIEMKTVFQQKVSEKEKKLQKSETELFARHKEMKEKLTKQLKALEDKKKQLELSINSASPNVNHSPVPTKKKGFLR
# chain 4: MDPLSSVQPASYVGFDTITNQIEHRLLKKGFQFNIMVVGQSGLGKSTLINTLFASHLIDSATGDDISALPVTKTTEMKISTHTLVEDRVRLNINVIDTPGFGDFIDNSKAWEPIVKYIKEQHSQYLRKELTAQRERFITDTRVHAILYFLQPNGKELSRLDVEALKRLTEIANVIPVIGKSDTLTLDERTEFRELIQNEFEKYNFKIYPYDSEELTDEELELNRSVRSIIPFAVVGSENEIEINGETFRGRKTRWSAINVEDINQCDFVYLREFLIRTHLQDLIETTSYIHYEGFRARQLIALKENANSRSSAHMSSNAIQR
# B4: Cdc11-capped septin hetero-octamers containing Cdc10-GFP as the sole source of Cdc10 (complex, S. cerevisiae)
# chain 1: B2 chain
# chain 2: B3 chain 2
# chain 3: B3 chain 3
# chain 4: B3 chain 4
# B5: Bni5(C144R C266F) labeled with AF647 at C375 (natural protein)
# chain: MGLDQDKIKKRLSQIEIDINQMNQMIDENLQLVEPAEDEAVEDNVKDTGVVDAVKVAETALFSGNDGADSNPGDSAQVEEHKTAQVHIPTENEANKSTDDPSQLSVTQPFIAKEQITHTAIAIGDSYNSFVANSAGNEKAKDSRTENKEDGTVNIDQNRGEADVEIIENNDDEWEDEKSDVEEGRVDKGTEENSEIESFKSPMPQNNTLGGENKLDAELVLDKFSSANKDLDIQPQTIVVGGDNEYNHESSRLADQTPHDDNSENFPNRSGGSTPLDSQTKIFIPKKNSKEDGTNINHFNSDGDGQKKMANFETRRPTNPFRVISVSSNSNSRNGSRKSSLNKYDSPVSSPITSASELGSIAKLEKRHDYLSMKCIKLQKEIDYLNKMNAQGSLSMEDGKRLHRAVVKLQEYLDKKTKEKYEVGVLLSRHLRKQIDRGENGQFWIGTK
# modifications: AF647 (Alexa Fluor 647 maleimide) on C375
# B6: (His)8-3C protease cleavage site-Bni5 fusion (wild-type Bni5), P53890 1-448 (natural protein)
# chain: B5 chain with R144C, F266C
# Legend:
# [1] = target: Bni5(1–313) used for FFF-MALS (S. cerevisiae) (UniProt P53890); test: field-flow fractionation with multi-angle light scattering
# [2] = target: Otherwise Cys-less septin hetero-octamers capped with Cdc11(Δα0) E294C labeled with AF555 (S. cerevisiae) (UniProt P32458); test: FRET or BRET
# [3] = target: T1, (His)8-3C protease cleavage site-Bni5 fusion (wild-type Bni5) (S. cerevisiae, UniProt P53890 1-448); test: negative-stain electron microscopy with 2D class averages
# T1 sequence (looked up): B5 chain with R144C, F266C
# [4] = target: the molecule itself; test: as above
# [5] = target: T2, (His)8-3C protease cleavage site-Bni5 fusion (wild-type Bni5) (S. cerevisiae), P53890; test: field-flow fractionation with multi-angle light scattering; conditions: remark: other sources report otherwise
# T2 chain: B5 chain with R144C, F266C
# [6] = target: T2, (His)8-3C protease cleavage site-Bni5 …; test: AUC; conditions: remark: other sources report otherwise
molecule,measurement,setting,value
Bni5(1–313) used for FFF-MALS (from UniProt P53890 1-313) (domain or fragment),stoichiometry N,[1],2 and 4
B1,EC50,[2],614 nM
B2,binding result,[3],binds
B3,binding result,[4],binds
B4,binding result,[4],binds
B5,Kd,[2],154 nM
B6,stoichiometry N,[5],2 and 4
same,stoichiometry N,[6],2
